Here are results for eight molecules from patent US20210355194A1.

The chains are these.
B1: SARS-CoV-2 variant 1-4 (antibody)
chain 1: EVQLLESGGGLVQPGGSLRLSCAASGFTFSSQAMSWVRQAPGKGLEWVSAISGSGGGTYYADSVKGRFTISRDNSKNTLYLQMNSLRAEDTAVYYCAKDRRFGEFDPWGQGTLVTVSS
chain 2: QSALTQPASVSGSPGQSITISCTGTSSDVGTYNLVSWYQQHPGKAPKLMIYEGSQRPSGVSNRFSGSKSGNTASLTISGLQAEDEADYYCCSYAGSSSFVVFGGGTKLTVL
B2: SARS-CoV-2 variant 1-28 (antibody)
chain 1: EVQLLESGGGLVQPGGSLRLSCAASGFTFSSYGMSWVRQAPGKGLEWVSAISGSGGGTYYADSVKGRFTISRDNSKNTLYLQMNSLRAEDTAVYYCASSSSWQFDYWGQGTLVTVSS
chain 2: B1 chain 2 with D28G, T31S, S98T, F99H, V100Y
B3: SARS-CoV-2 variant 1-5 (antibody)
chain 1: B1 chain 1
chain 2: B1 chain 2 with D28G, T31S, G53A, Q55K, S97Y, S98T, V100A
B4: SARS-CoV-2 variant 1-30 (antibody)
chain 1: EVQLLESGGGLVQPGGSLRLSCAASGFTFSSYAMTWVRQAPGKGLEWVSAISGSGGSTFYADSVKGRFTISRDNSKNTLYLQMNSLRAEDTAVYYCTRPPYGDYGDYWGQGTLVTVSS
chain 2: B1 chain 2 with S27R, T31S, S54T, Q55K, S97R, S98T, F99P
B5: SARS-CoV-2 variant 1-31 (antibody)
chain 1: B4 chain 1 with T35N
chain 2: B1 chain 2 with T31K, S97R, S98T, F99P
B6: SARS-CoV-2 variant 1-3 (antibody)
chain 1: B1 chain 1
chain 2: B1 chain 2 with T25I, T31S, S54T, Q55K
B7: SARS-CoV-2 variant 1-49 (antibody)
chain 1: EVQLLESGGGLVQPGGSLRLSCAASGFTFSSYAMYWVRQAPGKGLEWVSAISGSAGSTYYADSVKGRFTISRDNSKNTLYLQMNSLRAEDTAVYYCARDTNDFWGQGTLVTVSS
chain 2: QSALTQPASVSGSPGQSITISCTGTSSDIGSYNLVSWYQQHPGKAPKLMIYEGTKRPSGVSNRFSGSKSGNTASLTISGLQAEDEADYYCCSYAGSRTYVFGGGTKLTVL
B8: SARS-CoV-2 variant 1-32 (antibody)
chain 1: B4 chain 1 with T35Y
chain 2: QSALTQPASVSGSPGQSITISCTGTSSDVGGYNLVSWYQQHPGKAPKLMIYEGNKRPSGVSNRFSGSKSGNTASLTISGLQAEDEADYYCCSYAGSSTFPVVFGGGTKLTVL

Positions count from the first letter of the chain named.

The target in the test is COVID S1 RBD Fc fusion (Antigen 1) (SARS-CoV-2), P0DTC2. The test can be described thus: phage ELISA. The following applies: remark: other sources report otherwise.
In the case of B1, the ELISA fold over background was 1.4 fold.

Regarding B2, the ELISA fold over background was found to be 1.1 fold.

B3: the ELISA fold over background is 1.6 fold.

In turn, B4 came in with an ELISA fold over background of 1.7 fold.

In turn, B5 gave an ELISA fold over background of 1.3 fold.

The molecule B6 returned an ELISA fold over background of 1.8 fold.

B7 came in with an ELISA fold over background of 1 fold.

B8 showed an ELISA fold over background of 1.5 fold.
